The record followed here is patent publication WO2024101382A1 (dated 2024).

In the assay the target is T1, Recombinant mouse LSR-Fc (mouse, UniProt Q99KG5 36-206, limits assumed).
T1 construct: not shown: Fc part
T1 sequence (looked up): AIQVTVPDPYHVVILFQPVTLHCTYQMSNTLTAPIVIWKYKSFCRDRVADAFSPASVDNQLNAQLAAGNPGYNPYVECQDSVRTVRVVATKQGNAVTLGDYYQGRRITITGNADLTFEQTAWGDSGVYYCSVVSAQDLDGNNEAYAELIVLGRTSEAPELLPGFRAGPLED
Put plainly: ELISA, LSR-Fc coated on plate. (ELISA stands for enzyme-linked immunosorbent assay.)

B1: Chicken mouse chimeric anti-LSR antibody (#27-6mF18) (antibody, V domains shown)
VH: AVTLDESGGGLQMPGGALSLVCRASGFDFSSYEMQWIRQAPGKGLEWVAGISGAGSGTRYGSAVKGRATISRDNGQSTVRLQLNNLRAEDTGIYFCARSSNIDAWGHGTEVTVST
VL: ALTQPASVSANLGGTVKITCSGGGRYAESYYYGWYQQKSPGSTPVTVIYWNDKRPSNIPSRFSGSLSGSTNTLTITGVQVEDEAVYFCGSYEDSRSAFGAGTTLTV
notes: Chicken-mouse chimeric antibody; also called anti-LSR monoclonal antibody #27-6 mF-18
In the case of B1, the binding result is reported as “binds”.
